Measured values taken from patent publication US20080226675A1.

Experiments:
[1] = biological target: Apolipoprotein B mRNA-editing enzyme-catalytic polypeptide-like 3G (A3G), wild type, cmyc-tagged (human) (UniProt Q9HC16); experiment: cell-based or functional assay
[2] = biological target: mutant A3G D128K, cmyc-tagged (human) (UniProt Q9HC16); experiment: cell-based or functional assay

Row | Substance | infectivity of HIV-GFP produced from D3GFP-carrying 293T cells in the presence of HIV-1 Vif, percent of control [1] | infectivity of HIV-GFP produced from D3GFPD128K-carrying 293T cells in the presence of HIV-1 Vif, percent of control [2] | inhibition of HIV-GFP replication (GFP+ 293T cells by flow cytometry) by pD3GFPD128K in the presence of HIV-1 Vif [2] [%] | percent green fluorescent 293T cells after infection with D3GFP vector produced in the presence of SIVmac Vif [1] [%] | percent green fluorescent 293T cells after infection with D3GFPD128K vector produced in the presence of SIVmac Vif [2] [%]
1 | HIV-1 viral infectivity factor (Vif) | 89 % of control | 1 % of control | 90 |  | 
2 | macaque simian immunodeficiency virus Vif (SIVmac Vif) |  |  |  | 24 | 26
